In patent US20160257760A1 (OXFORD BIOTHERAPEUTICS, published 2016):

How the values were obtained:
Test in all cases: peptide microarray, 1 µg/mL LY75_A1, anti-human IgG Alexa 647
RYPWHRFP = target: T1, RYPWHRFP
T1 peptide: RYPWHRFP

HRFPVTFG = target: T2, HRFPVTFG
T2 peptide: HRFPVTFG

RSFKALSI = target: T3, RSFKALSI
T3 peptide: RSFKALSI

EVKDCRSF = target: T4, EVKDCRSF
T4 peptide: EVKDCRSF

B1: LY75_A1 monoclonal antibody (antibody, V domains shown)
VH: EVQLVESGGGLVKPGGSLRLSCAASGFTYSNAWMSWVRQAPGKGLEWVGRIKSKTDGGTTDYAAPVQGRFTISRDDSKNTLYLQMNSLKTEDTAVYYCTIFGVVSFDYWGQGTLVTVSS
VL: DVQMTQSPSSLSASVGDRVTITCRASQSISDYLSWYQQRPGKAPNLLIYAASNLKTGVPSRFSGSGSGTDFTLTISTLQPEDFATYYCQQSYRSPWTFGQGTKVEIKR
notes: also called LY75A1 antibody; LY75_A1 antibody
Does B1 bind (RYPWHRFP)?
Result: binds

Does B1 bind (HRFPVTFG)?
Result: binds

Does B1 bind (RSFKALSI)?
Result: no binding (tested: 1 µg/mL)

Does B1 bind (EVKDCRSF)?
Result: binds
